This data set is described as follows: label from the status in PepcDB records.
“NQLIRGRLVVGMVTACTVKPLFDALSAFHVAHPGIEITLTEDSSDRLVERVRAGAIDLALVGTATAPPDGLDAFPIISEGLVAAVPPGHPLAGRSRVTLAELGDHAIVCMPTGTGIRTVFDQACAAAGLRPDIALQASAPDAVADLAIRG”: the protein production result was “failed”. In the case of “NQPAYKDSSLSPEERAEDLLQQLTLEEKVALMMDNSKPVERLGIKPYNWWNEALHGVARSGLATVFPQPIGMAASFEPDAIHTIYTAVSDEARAKNAAYSAAGSYERYQGLTMWTPTVNIYRDPRWGRGIETYGEDPYLTSVMGVNVVKGLQCMDANQKYDKIHACAKHFAVHSGPEWNRHEFNAENIKPRDLHETYLVPFEALVKEAKVKEVMCAYNRLEGDPCCGSDRLLMQILRQDWGYDGIVLSDCGAIDDFYREKGHKTHPDAESASAAAVLSGTDLECGSSYKALVESAKKGLISEKDIDVSVKRLLKARFELGEMDDP”, the protein production result is reported as “failed”.

Turning to “NRFIGYIQVACCCLLLCASCVRDGMDEDCNSYVRFVYDYNLEYIDLFHKQATKMNLYVFDEKGVFVTELKEESGAFAPDYLMTLPGAMAGRRYIFVAWSGLYGESYDKVTLTPGVSTLEDLEVSVNNLKTRIGGGVVDRELHLLWHGKQTEVSPQYNNDITTVSLLKNTKKFRIIMQMLDDSSIHVDDYDFRIISPNGRYNHENGLLGDETDEKVEYTAYHTEDDPETGAIAELNTLRLMTDTENRLVITHKSSGNVILDIPLNKYLNALRLQQYADIPLQEYLDRADKHGIILFFKGMDGNGNYISVDVQINGWLIRKQEVD”, the protein production entry was “not failed”. On to “NSFDSSNYFYGGNNICIINTKWGKHSGIGGYAEIIDTLVGNFTNISSWAKIGIRDHIHTNFLICDFVYKDNDHIMPPGISSFEDYWVKIGNDVWVGTNVTILRGVEVGDGAVIAAGSVVTKSIPPYAIVGGNPAKFIKWRFPFEVREKLLEIKWWDWDDDLIKEKKDYLQNLVGFDMDKYKIEYRKRKED”, for which the protein production result was “failed”. Under “NYNIYDHPKAAEDRKNTVLYLMHYHKRITDKQWEDAKKIDLKANLVNRTPEERQNIDTNQDSEYNSYVNFVKSELMNNKAFKDENLGNVLQSG” stands “failed”. Under “PALPYAKSLAPVDLTDCSAQALETARQLGLLQRTKLIVMHVYDAAAAGMLNYAGVDKTSLDDYLVDTRTDAVRDLVRFLEPLRLDDVDYSTVVKEGAGPATDIIEAATELRPDLVVIGTHARRGAVRLLLSSVTEEVLRRLQRDILVVPVRDAGS” stands “failed”; under “PDRAWINRCRTLSEHTDKAVRAQLAAHPKATGLHVAAAVMDALTDGDQLLLGASNPVRDAALVSYPAPKIRVLSNRGVAGIDGTVSAAVGAALAYEEGRTVALLGDLTFLHDASGLLIGSGEPRPRDLTIVVANDDGGGIFELLEQGDPQYAGVFERVFGTPHGMDLAALCAAYRVEHHLVGLGELSTRLSAPEAPGDRGIRVLEVTTERSGLRELHAAVRAQL”, “failed”; under “PECDWWALGVFAYEMFYGQTPFYADSTAETYGKIVHYKEHLSLPLVDEGVPEEARDFIQRLLCPPETRLGRGGAGDFRTHPFFFGLDWDGLRDSVPPFTPDFEGATDTCNFDLVEDGLTAMVSGGGETLSDIREGAPLGVHLPFVGYSYSCMALRDSEVPGPTPMEVEAEQLLEPHVQAPSLEPSVSPQDET”, “failed”.

“PEQHRLRYQSLKQQLDDYYQEVTVQNYLDLTTRSHAFDQWLNNNIQLDWVKATVVKDAPDKIRAKANKEQHLNFQLIKHLEKPEDNVDLISAYFVPEKQGAKHLSDMAQDGIKVRVLTNSFKANDVPVVHAFYAKYRQELLENGVQLYEFLPTLEKEELDKYTDELVKKAKVSIKGLSRSSLHAKMMALDQKQVFIGSFNFDPRSAYLNTEIGVILNSPPLAMAVHQTMDQQLTHYAYKLVLDANHKINWYRQTS”: the protein production result is listed as “failed”. With “PFIMDAPRDLNISEGRMAELKCRTPPMSSVKWLLPNGTVLSHASRHPRISVLNDGTLNFSHVLLSDTGVYTCMVTNVAGNSNASAYLNVS”, the protein production entry is “not failed”.

For the sequence “PFKESQARGLLQDNMANSYNGGDFEDGLLNLSKEVFPTDKYLYQDGQFLDKKTINAYLNPKYTKREIDKMSEKDKKDKKANENLGLNPSHEGETNPEKIAEKSPAYLSNILEQDFYGGGDTKGKNIKGMTIGLAMNSVYYYKKEKDGPTFSKKLDDSEVKKQGKQMASEILSRLRENDDLKDIPIHFAIYKQSSEDSITPGEFITQATAEKSQTKLNEWHNINEKSALLPSSTAADYDENLNNNFKQFNDNLQSYFSNFTQAVGKVKFVDKKPQRLVVDLPIDYYGQAETIGITQYVTEQANKYFDKIDNYEIRIKDGNQPRALISKTKDDKEPQVHIYSN”, the protein production result is listed as “not failed”.

Source of the values: a protein production outcome set (Wang et al. 2014).
